Test [1] has as its target T1, 14-3-3σ Clu3 (1-231) (human, UniProt P31947 1-231, 75EEK77 → AAA).
T1 sequence: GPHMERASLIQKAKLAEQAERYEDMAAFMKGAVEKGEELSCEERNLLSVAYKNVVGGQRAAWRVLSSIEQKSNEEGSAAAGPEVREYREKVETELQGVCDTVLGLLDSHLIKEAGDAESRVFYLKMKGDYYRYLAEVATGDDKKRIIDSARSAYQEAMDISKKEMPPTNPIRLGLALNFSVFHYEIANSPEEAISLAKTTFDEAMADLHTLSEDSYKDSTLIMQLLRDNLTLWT
The test is described as follows: crystal structure.

The target of test [2] is T2, 14-3-3σ WT (1-231) (human, UniProt P31947 1-231).
T2 sequence: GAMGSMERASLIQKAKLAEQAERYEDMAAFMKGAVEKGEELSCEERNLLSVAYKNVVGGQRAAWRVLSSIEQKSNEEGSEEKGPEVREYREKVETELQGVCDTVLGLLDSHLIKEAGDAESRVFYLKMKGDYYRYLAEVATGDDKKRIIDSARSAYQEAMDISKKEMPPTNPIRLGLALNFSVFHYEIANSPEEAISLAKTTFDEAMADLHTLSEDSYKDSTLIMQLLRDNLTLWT
The test is described as follows: other fluorescence titration.

The Kd is the constant that tells how readily two partners part at equilibrium. A lower Kd goes with higher affinity.

[ ]: non-standard residue; d: D form. pS = N[C@@H](COP(=O)(O)O)C(=O)O

B1: pHSPB6(13-20) phosphopeptide (peptide, UniProt O14558 13-20, looked up)
peptide: H-RRA[pS]APLP-OH
SMILES: CC(C)C[C@H](NC(=O)[C@@H]1CCCN1C(=O)[C@H](C)NC(=O)[C@H](COP(=O)(O)O)NC(=O)[C@H](C)NC(=O)[C@H](CCCNC(=N)N)NC(=O)[C@@H](N)CCCNC(=N)N)C(=O)N1CCC[C@H]1C(=O)O
B1: the binding result in test [1] is recorded as “binds”.

B2: AEDANS-labeled phosphorylated full-length HSPB6 (natural protein, human, UniProt O14558 1-160, looked up)
chain: MEIPVPVQPSWLRRASAPLPGLSAPGRLFDQRFGEGLLEAELAALCPTTLAPYYLRAPSVALPVAQVPTDPGHFSVLLDVKHFSPEEIAVKVVGEHVEVHARHEERPDEHGFVAREFHRRYRLPPGVDPAAVTSALSPEGVLSIQAAPASAQAPPPAAAK
modifications: phosphoserine at 16; 1,5-I-AEDANS moiety on Cys46 (extent of labeling 90%)
Molecule B2 registered a Kd in test [2] of 560 ± 200 nM.

These data come from PMC5321513 (Structure (London, England : 1993), 2017).
